Patent US20250295803A1, “5T4 ANTIBODY-DRUG CONJUGATES AND USES THEREOF” (EXELIXIS, INC., priority 2022, published 2025)

T1: HEK293 and CHO cells transfected to express mouse 5T4 (Mus musculus, UniProt Q9Z0L0)
T1 construct: expressed in transfected cells; host or cells: HEK293 and CHO
T1 sequence (Q9Z0L0 32-426): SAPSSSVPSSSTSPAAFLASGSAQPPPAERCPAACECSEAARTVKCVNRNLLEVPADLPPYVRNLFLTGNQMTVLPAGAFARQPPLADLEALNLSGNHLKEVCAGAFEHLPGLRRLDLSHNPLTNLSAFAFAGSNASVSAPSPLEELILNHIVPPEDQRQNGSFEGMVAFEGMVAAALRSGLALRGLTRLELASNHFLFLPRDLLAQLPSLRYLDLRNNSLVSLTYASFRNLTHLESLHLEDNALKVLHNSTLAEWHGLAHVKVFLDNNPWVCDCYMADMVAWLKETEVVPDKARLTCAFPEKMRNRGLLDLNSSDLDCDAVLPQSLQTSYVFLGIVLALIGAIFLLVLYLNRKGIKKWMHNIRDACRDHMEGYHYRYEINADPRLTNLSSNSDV

T2: unconjugated human TPBG/5T4 protein with a c-terminal polyhistidine and Avi tag (AcroBiosystems Cat. No. … (human, UniProt Q13641 32-355))
T2 construct: Bought protein; also called Acro TPGH52E5; Acro Catalog No. TPGH52E; not shown: C-terminal polyhistidine and Avi tag
T2 sequence: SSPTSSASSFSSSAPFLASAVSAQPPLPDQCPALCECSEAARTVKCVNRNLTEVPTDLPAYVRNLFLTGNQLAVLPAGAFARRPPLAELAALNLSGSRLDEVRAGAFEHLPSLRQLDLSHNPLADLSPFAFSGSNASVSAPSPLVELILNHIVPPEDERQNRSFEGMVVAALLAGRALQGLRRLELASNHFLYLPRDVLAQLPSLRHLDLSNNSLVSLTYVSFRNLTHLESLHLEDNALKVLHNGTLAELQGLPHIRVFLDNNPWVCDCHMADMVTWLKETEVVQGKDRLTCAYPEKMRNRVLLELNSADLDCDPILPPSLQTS


Key:
[1] = target: T1, HEK293 and CHO cells transfected to express mouse 5T4; experiment: Cell binding to transfected HEK293 and CHO cells, mouse 5T4; format: cell-based
Description: Unconjugated antibodies were tested for their ability to bind to HEK293 and CHO cells transfected to express human, cyno, rat, or mouse 5T4.

[2] = target: T2, unconjugated human TPBG/5T4 protein …; experiment: ELISA on coated human 5T4 His-Avi (Acro TPG-H52E5); antibody condition: PBS Time 0
Description: (§1) A. Normal Binding Unconjugated antibodies were tested for their ability to bind to human 5T4 (hu5T4) using ELISA. On Day 1, unconjugated human TPBG/5T4 protein with a c-terminal polyhistidine and Avi (AVITAG™) tag (AcroBiosystems (Newark, DE, USA), Cat. No. TPG-H52E5) was diluted 2 μg/mL in PBS, mixed thoroughly, plated 100 μL per well in a 96-well plate (Nunc MAXISORP®) and incubated overnight at 4° C.
(§2) 3. Oxidative Stress. Several unconjugated antibodies were tested for their ability to bind to 5T4 using ELISA in an oxidative environment. Solutions of 1 mg/mL to 10 mg/mL of antibody in 20 mM citrate/50 mM NaCl at a pH of 5.5 were prepared and stored at 37° C. for 1 to 2 weeks.

[3] = target: T2, unconjugated human TPBG/5T4 protein …; experiment: ELISA on coated human 5T4 His-Avi (Acro TPG-H52E5); antibody condition: pH 5.5 Day 0
Description: as §1
2. Low pH Stress Test. Several unconjugated antibodies were tested for their ability to bind to 5T4 using ELISA under acidic (low pH) conditions. Solutions of 1 mg/mL to 10 mg/mL of antibody in […] were prepared and stored at 37° C. for 1 to 2 weeks.

[4] = target: T2, unconjugated human TPBG/5T4 protein …; experiment: ELISA on coated human 5T4 His-Avi (Acro TPG-H52E5); antibody condition: pH 5.5 Day 1
Description: as §1

[5] = target: T2, unconjugated human TPBG/5T4 protein …; experiment: ELISA on coated human 5T4 His-Avi (Acro TPG-H52E5); antibody condition: pH 5.5 Day 7
Description: as §1

[6] = target: T2, unconjugated human TPBG/5T4 protein …; experiment: ELISA on coated human 5T4 His-Avi (Acro TPG-H52E5); antibody condition: pH 8.5 Day 14
Description: as §1

[7] = target: T2, unconjugated human TPBG/5T4 protein …; experiment: ELISA on coated human 5T4 His-Avi (Acro TPG-H52E5); antibody condition: PBS time 48 hr.
Description: as §1, §2

[8] = target: T2, unconjugated human TPBG/5T4 protein …; experiment: ELISA on coated human 5T4 His-Avi (Acro TPG-H52E5); antibody condition: PBS + H2O2 time 24 hr.
Description: as §1
3. Oxidative Stress. Several unconjugated antibodies were tested for their ability to bind to 5T4 using ELISA in an oxidative environment. […]

Row | EC50 [2] [nM] | EC50 [3] [nM] | EC50 [4] [nM] | EC50 [5] [nM] | EC50 [6] [nM] | EC50 [7] [nM] | EC50 [8] [nM] | Molecule | reactivity to cells transfected to express mouse 5T4 [1]
1 |  |  |  |  |  |  |  | mAbA4: 5T4 antibody comprising VH of SEQ ID NO:25 and VL of SEQ ID NO:26 (antibody, V domains shown, Antibody mAbA4 VH Sequence; Antibody mAbA4 VL Sequence) VH: EVQLVESGGGLVQPGGSLRLSCAASGFTFSRYYIHWVRQAPGKGLEWVAFISPGGSYTYYADSVKGRFTISADTSKNTAYLQMNSLRAEDTAVYYCAREYYSMGVLDYWGQGTLVTVSS VL: DIQMTQSPSSLSASVGDRVTITCRASQSVSSAVAWYQQKPGKAPKLLIYSASSLYSGVPSRFSGSRSGTDFTLTISSLQPEDFATYYCQQAYESPYTFGQGTKVEIK | not to cells transfected to express rat or mouse 5T4
2 |  |  |  |  |  |  |  | mAbA15: 5T4 antibody comprising VH of SEQ ID NO:44 and VL of SEQ ID NO:45 (antibody, V domains shown, Antibody mAbA15 VH Sequence; Antibody mAbA15 VL Sequence) VH: EVQLVESGGGLVQPGGSLRLSCAASGFTFSSYYIHWVRQAPGKGLEWVAYITSTGSYTEYADSVKGRFTISADTSKNTAYLQMNSLRAEDTAVYYCARYDRSTRYSGLDYWGQGTLVTVSS VL: DIQMTQSPSSLSASVGDRVTITCRASQSVSSAVAWYQQKPGKAPKLLIYSASSLYSGVPSRFSGSRSGTDFTLTISSLQPEDFATYYCQQAYATPVTFGQGTKVEIK | not to cells transfected to express rat or mouse 5T4
3 | 0.198 | 0.164 | 0.159 | 0.19 | 0.167 | 0.185 | 0.183 | mAbA17 (antibody, V domains shown, also called Antibody mAbA17) VH: EVQLVESGGGLVQPGGSLRLSCAASGFTFSRYWIHWVRQAPGKGLEWVAAIFPYSGSTLYADSVKGRFTISADTSKNTAYLQMNSLRAEDTAVYYCARSPSRSILPSGLDYWGQGTLVTVSS VL: DIQMTQSPSSLSASVGDRVTITCRASQSVSSAVAWYQQKPGKAPKLLIYSASSLYSGVPSRFSGSRSGTDFTLTISSLQPEDFATYYCQQGDGSPYTFGQGTKVEIKR | 
4 |  |  |  |  |  |  |  | mAbA17: 5T4 antibody comprising VH of SEQ ID NO:62 and VL of SEQ ID NO:63 (antibody, V domains shown, Antibody mAbA17 VH Sequence; Antibody mAbA17 VL Sequence) VH: EVQLVESGGGLVQPGGSLRLSCAASGFTFSRYWIHWVRQAPGKGLEWVAAIFPYSGSTLYADSVKGRFTISADTSKNTAYLQMNSLRAEDTAVYYCARSPSRSILPSGLDYWGQGTLVTVSS VL: DIQMTQSPSSLSASVGDRVTITCRASQSVSSAVAWYQQKPGKAPKLLIYSASSLYSGVPSRFSGSRSGTDFTLTISSLQPEDFATYYCQQGDGSPYTFGQGTKVEIK | not to cells transfected to express rat or mouse 5T4
5 | 0.229 | 0.124 | 0.134 | 0.132 | 0.131 | 0.203 | 0.19 | mAbA15 (antibody, V domains shown, also called Antibody mAbA15) VH: EVQLVESGGGLVQPGGSLRLSCAASGFTFSSYYIHWVRQAPGKGLEWVAYITSTGSYTEYADSVKGRFTISADTSKNTAYLQMNSLRAEDTAVYYCARYDRSTRYSGLDYWGQGTLVTVSS VL: DIQMTQSPSSLSASVGDRVTITCRASQSVSSAVAWYQQKPGKAPKLLIYSASSLYSGVPSRFSGSRSGTDFTLTISSLQPEDFATYYCQQAYATPVTFGQGTKVEIKR | 
6 | 0.182 | 0.133 | 0.132 | 0.124 | 0.136 | 0.189 | 0.393 | mAbA4 (antibody, V domains shown, also called Antibody mAbA4) VH: EVQLVESGGGLVQPGGSLRLSCAASGFTFSRYYIHWVRQAPGKGLEWVAFISPGGSYTYYADSVKGRFTISADTSKNTAYLQMNSLRAEDTAVYYCAREYYSMGVLDYWGQGTLVTVSS VL: DIQMTQSPSSLSASVGDRVTITCRASQSVSSAVAWYQQKPGKAPKLLIYSASSLYSGVPSRFSGSRSGTDFTLTISSLQPEDFATYYCQQAYESPYTFGQGTKVEIKR | 
